Experimental findings from the Human Domainome abundance scans (Beltran et al. 2025) are described below.

± gives the uncertainty stated by the source.

B1: CD2-associated protein, residues 271 to 331; numbered along this chain, Q9Y5K6 (parent)
chain: KEYCRTLFAYEGTNEDELTFKEGEIIHLISKETGEAGWWRGELNGKEGVFPDNFAVQINEL

The data set covers variants of B1. The experiment in a line: abundance fitness (aPCA) (normalised: wild type 0, dead -1); higher = more abundant; growth selection in yeast, the domain comes from the species named. The conditions noted are these: Homo sapiens.
On to KEYCRTLFAYEGTNEDELTFKEGEIIHLISKETGEAGWIRGELNGKEGVFPDNFAVQINEL, for which the abundance fitness is -0.851 ± 0.17. In the case of KEYCRTLFAYEGTNEDELTFKEGEIIHLISKETGEAGWARGELNGKEGVFPDNFAVQINEL it was -0.328 ± 0.098; in that of KEYCRTLFAYEGTNEDELTFKEGEIIHLISKETGEAGWQRGELNGKEGVFPDNFAVQINEL, -0.661 ± 0.2. In the case of KEYCRTLFAYEGTNEDELTFKEGEIIHLISKETGEAGWHRGELNGKEGVFPDNFAVQINEL it was -0.623 ± 0.14. KEYCRTLFAYEGTNEDELTFKEGEIIHLISKETGEAGWWRGELLGKEGVFPDNFAVQINEL: the abundance fitness is -0.287 ± 0.048. In the case of KEYCRTLFAYEGTNEDELTFREGEIIHLISKETGEAGWWRGELNGKEGVFPDNFAVQINEL it was -0.064 ± 0.064; in that of KEYCRTLFAYAGTNEDELTFKEGEIIHLISKETGEAGWWRGELNGKEGVFPDNFAVQINEL, -0.234 ± 0.088. As for KEYCRTLFAYEGTNLDELTFKEGEIIHLISKETGEAGWWRGELNGKEGVFPDNFAVQINEL, the figure is -0.208 ± 0.061; as for KEYCRTLFAYEGTNDDELTFKEGEIIHLISKETGEAGWWRGELNGKEGVFPDNFAVQINEL, 0.027 ± 0.18. In the case of KEYCRTLFAYEGTNEDELTFKEGEIIHLISKETAEAGWWRGELNGKEGVFPDNFAVQINEL it was -0.216 ± 0.094; in that of KEYCRTLFAYEGTNEDELTFKEGEIIHLISKETVEAGWWRGELNGKEGVFPDNFAVQINEL, -0.368 ± 0.078; in that of KEYCRTLFAYEGTNEDELTFKEGEIIHLISKETGEAGWWRGELNGKEGVFPSNFAVQINEL, 0.039 ± 0.065. As for KEYCRTLFAYEGTNEDELTFKEGEIIHLISKETGEAGWWRGELNGKEGVFPWNFAVQINEL, the abundance fitness was -0.186 ± 0.12. In the case of KEYCRTLFAYEGTNEDELTFKEYEIIHLISKETGEAGWWRGELNGKEGVFPDNFAVQINEL it was -1.09 ± 0.33; in that of KEYCRTLFAYEGTNEDELTFKEREIIHLISKETGEAGWWRGELNGKEGVFPDNFAVQINEL, -0.57 ± 0.063; in that of KEYCRTLFAYEGTNEDELTFKEGDIIHLISKETGEAGWWRGELNGKEGVFPDNFAVQINEL, -0.036 ± 0.079.

Turning to KEYCRTLFAYEGTNEDELTFKEGEIIHLIQKETGEAGWWRGELNGKEGVFPDNFAVQINEL, the abundance fitness is -0.36 ± 0.11. As for KEYCRTLFAYEGTNEDELTFKEGEIIHLILKETGEAGWWRGELNGKEGVFPDNFAVQINEL, the abundance fitness was -0.859 ± 0.091. Turning to KEYCRTLFAYEGTNEDELTFKEGEIIHLIAKETGEAGWWRGELNGKEGVFPDNFAVQINEL, the abundance fitness was -0.129 ± 0.053. In the case of KEYCRTLFAYEGTNEDELTFKEGEIIHLISKETGEAGWWRGELNGKEGVFPDNFAVAINEL it was -0.023 ± 0.061; in that of KEYCRTLFAYEGTNEDELTFKEGEIIHLISKETGEAGWWRGELNGKEGVFPDNFAVNINEL, -0.077 ± 0.19; in that of KEYCRTLFAYEGTNEDELTFKEGEIIHLISKETGEAGWWRGELNGKEYVFPDNFAVQINEL, -1.18 ± 0.34. In the case of KEYCRTLFAYEGTNEDELTFKEGEIIHLISKETGEWGWWRGELNGKEGVFPDNFAVQINEL it was -0.22 ± 0.068; in that of KEYCRTLFYYEGTNEDELTFKEGEIIHLISKETGEAGWWRGELNGKEGVFPDNFAVQINEL, -0.309 ± 0.096. For KEYCRTLFGYEGTNEDELTFKEGEIIHLISKETGEAGWWRGELNGKEGVFPDNFAVQINEL, the abundance fitness was -0.283 ± 0.056. In the case of KEYCRTLFAYEGTNEDELTFKEGEIIHLISKETGEAGWWRGELNPKEGVFPDNFAVQINEL it was -0.784 ± 0.11.

Consider KEYCRTLFAYEGTNEDELTFKEGEIIHLISVETGEAGWWRGELNGKEGVFPDNFAVQINEL, for which the abundance fitness is -0.313 ± 0.073. On to KEYCRTLFAYEGTNEDELTFKEGEIIHLISKETGEAGWWRGELNGKEGVFPDNFAVQINFL, for which the abundance fitness was -0.213 ± 0.11. For KEYCRTLFAYEGTNEDELTFKEGEIIHLISKETGEAGWWRGELNGKEGVFPDNFAVQINSL, the abundance fitness is -0.124 ± 0.091.

Regarding KEYCRTLFAYEGTNEDELTFKEGEIIHLISKETGEAGWWEGELNGKEGVFPDNFAVQINEL, the abundance fitness is -0.604 ± 0.09. Turning to KEYCRTLFAYEGTNEDELTFKEGEIIHLISKETGEAGWWWGELNGKEGVFPDNFAVQINEL, the abundance fitness is -0.377 ± 0.067.

Turning to KEYCSTLFAYEGTNEDELTFKEGEIIHLISKETGEAGWWRGELNGKEGVFPDNFAVQINEL, the abundance fitness was -0.49 ± 0.068.

Consider KEYCRTLFAYEGTNEDELTFKEGEPIHLISKETGEAGWWRGELNGKEGVFPDNFAVQINEL, for which the abundance fitness is -0.794 ± 0.19.

For KEYCRTLFAYEGTNEDELTFKGGEIIHLISKETGEAGWWRGELNGKEGVFPDNFAVQINEL, the abundance fitness is -0.26 ± 0.089. As for KEYCRTLFAYEGTNEDELTFKAGEIIHLISKETGEAGWWRGELNGKEGVFPDNFAVQINEL, the figure is -0.072 ± 0.078. As for KEYCRTLFAYEGTNEDELTFKKGEIIHLISKETGEAGWWRGELNGKEGVFPDNFAVQINEL, the figure is 0.116 ± 0.075; as for KEYCRTLFAYEGTNEDMLTFKEGEIIHLISKETGEAGWWRGELNGKEGVFPDNFAVQINEL, -0.362 ± 0.097; as for KEYCRTLFAYEGTNEDYLTFKEGEIIHLISKETGEAGWWRGELNGKEGVFPDNFAVQINEL, -0.463 ± 0.075.

On to KEYCRTLFAYEGTNEDELTFKEGEIIHLISKETGEAGWWRGELNGHEGVFPDNFAVQINEL, for which the abundance fitness came out at 0.083 ± 0.12. As for KEYCRTLFAYEGTNEDELTFKEGEIIHLISKETGEAGWWRGELNGKMGVFPDNFAVQINEL, the figure is -0.301 ± 0.21; as for KEYCRTLFAYEGTNEDELTFKEGEIIHLISKETGEAGWWRGELNGKRGVFPDNFAVQINEL, -0.02 ± 0.076. In the case of KEYCRTLFAYEGTNEDELTFKEGEIIHLISKETGEAGWWRGELNGKQGVFPDNFAVQINEL it was 0.014 ± 0.13; in that of KEYCRTLFAYEGTNEDELTFKEGEIIHLISKETGEAGWWRGELNGKHGVFPDNFAVQINEL, -0.154 ± 0.084; in that of KEYLRTLFAYEGTNEDELTFKEGEIIHLISKETGEAGWWRGELNGKEGVFPDNFAVQINEL, -0.046 ± 0.064.
